Among the data in paper PMC5201011 (2016) are response values, retold here.

B1: GST–Tks5-PX [not stated] / FLAG–Rab40b [not stated] (parent complex)
chain 1: YCVQDATVVDVEKRRNPSKHYVYIINVTWSDSTSQTIYRRYSKFFDLQMQLLDKFPIEGGQKDPKQRIIPFLPGKILFRRSHIRDVAVKRLKPIDEYCRALVRLPPHISQCDEVFRFFEARPEDV
chain 2: MSALGSPVRAYDFLLKFLLVGDSDVGKGEILASLQDGAAESPYGHPAGIDYKTTTILLDGRRVKLQLWDTSGQGRFCTIFRSYSRGAQGVILVYDIANRWSFDGIDRWIKEIDEHAPGVPKILVGNRLHLAFKRQVPTEQAQAYAERLGVTFFEVSPLCNFNITESFTELARIVLLRHGMDRLWRPSKVLSLQDLCCRAVVSCTPVHLVDKLPLPIALRSHLKSFSMANGLNARMMHGGSYSLTTSSTHKRSSLRKVKLVRPPQSPPKNCTRNSCKIS

In this test the parent is B1. Nature of the test: glutathione bead pulldown, quantified immunoblot; three independent experiments; parent: 1; read off a plot. In general terms: A western blot detects proteins with antibodies after separation by electrophoresis.
As for chain 1 Y21A, the response is around 0.57 Arbitrary Units.

As to chain 1 I24A, the response was around 0.86 Arbitrary Units.
